The target in experiment [1] is T1, Flt3D1-D5, recombinant human Flt3 ectodomain (residues 27-541) with C-terminal hexahistidine tag (human, UniProt P36888 27-541, N-linked glycosylation at 43, 100, 151, 306, 323, 351, 354, 473, 502 (at least partially occupied, by mass spectrometry)).
T1 construct: Secreted from HEK293T or HEK293S GnTI-/- cells and glycosylated; The secretion signal is not part of the mature protein; also called Flt3D15(27-541); Flt3D1-5
T1 sequence: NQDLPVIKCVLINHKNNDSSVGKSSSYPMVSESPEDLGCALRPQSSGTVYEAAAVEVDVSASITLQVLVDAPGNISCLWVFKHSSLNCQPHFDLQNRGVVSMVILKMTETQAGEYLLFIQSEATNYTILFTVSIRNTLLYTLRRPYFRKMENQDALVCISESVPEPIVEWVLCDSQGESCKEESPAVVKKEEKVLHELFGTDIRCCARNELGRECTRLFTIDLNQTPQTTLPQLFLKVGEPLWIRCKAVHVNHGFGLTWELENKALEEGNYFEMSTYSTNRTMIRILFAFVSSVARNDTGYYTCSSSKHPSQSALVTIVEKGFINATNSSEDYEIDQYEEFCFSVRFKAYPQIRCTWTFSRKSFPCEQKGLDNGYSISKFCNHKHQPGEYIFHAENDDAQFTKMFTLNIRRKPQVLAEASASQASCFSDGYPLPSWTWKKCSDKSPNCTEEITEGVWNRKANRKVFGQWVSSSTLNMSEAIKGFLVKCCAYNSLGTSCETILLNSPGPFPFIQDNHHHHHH
Briefly: isothermal titration calorimetry at 37 °C, Flt3 ectodomain titrated with FL, one binding site model. The text has this: (§1) (A-B) Isolation of Flt3D1-D5:FL and Flt3D1-D4:FL by size-exclusion chromatography (SEC). Also shown are Coomassie-stained SDS-PAGE strips corresponding to the peak fraction of the isolated complexes. The elution profiles of the complexes are characterized by large shifts to a single, faster migrating peak corresponding to the respective complex. (C) Size-exclusion chromatography on the Flt3D1-D3:FL mixture at the end of an ITC experiment, showing that a large amount of Flt3D1-D3 remains in the unbound form. Identical elution profiles were obtained in standard SEC experiments as well, in the presence of a large molar excess of FL. (D-F) Binding isotherms and thermodynamic parameters of FL binding to Flt3 ectodomains obtained by Isothermal Titration calorimetry (ITC). All experiments were performed by titrating recombinant Flt3 extracellular domains with FL.
(§2) Experiments were carried out using a VP-ITC MicroCalorimeter (MicroCal, MA) at 37° C., and data were analyzed using the Origin ITC analysis software package supplied by MicroCal. Purified recombinant Flt3 ectodomain constructs and FL were dialyzed overnight against 10 mM Tris-HCl, pH 7.4, at 4° C. Protein concentrations were measured spectrophotometrically at 280 nm using calculated theoretical extinction coefficients and all solutions were extensively degassed prior to use. The sample was stirred at a speed of 400 rpm throughout. The thermal titration data were fit to the “one binding site model”, and apparent molar reaction enthalpy (ΔH°), apparent entropy (ΔS°), association constant (Ka) and stoichiometry of binding (N) were determined. Several titrations were performed to evaluate reproducibility.

The target of experiment [2] is T2, Flt3D1-D4, recombinant human Flt3 ectodomain variant (residues 27-434) with C-terminal hexahistidine tag (human, UniProt P36888 27-434, N-linked glycosylation (glycosylated protein from HEK293 cells)).
T2 construct: Secreted from HEK293T or HEK293S GnTI-/- cells and glycosylated; also called Flt3D14(27-434); Flt3D1-4
T2 sequence: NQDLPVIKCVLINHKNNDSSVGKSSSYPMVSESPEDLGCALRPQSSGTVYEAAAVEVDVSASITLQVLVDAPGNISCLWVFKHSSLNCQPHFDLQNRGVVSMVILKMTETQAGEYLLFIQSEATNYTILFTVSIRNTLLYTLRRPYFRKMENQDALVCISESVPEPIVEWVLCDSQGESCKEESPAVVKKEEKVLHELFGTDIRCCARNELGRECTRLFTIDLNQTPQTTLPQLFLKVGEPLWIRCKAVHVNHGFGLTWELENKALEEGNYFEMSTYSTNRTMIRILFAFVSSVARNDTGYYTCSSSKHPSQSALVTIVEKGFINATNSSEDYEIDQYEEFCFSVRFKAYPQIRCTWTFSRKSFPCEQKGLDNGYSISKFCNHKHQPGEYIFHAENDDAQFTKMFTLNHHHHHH
The description is as above.
Source text: as §1, §2

Experiment [3] has as its target T3, Flt3D1-D3, recombinant human Flt3 ectodomain variant (residues 27-346) with C-terminal hexahistidine tag (human, UniProt P36888 27-346, N-linked glycosylation (glycosylated protein from HEK293 cells)).
T3 construct: also called Flt3D13(27-346)
T3 sequence: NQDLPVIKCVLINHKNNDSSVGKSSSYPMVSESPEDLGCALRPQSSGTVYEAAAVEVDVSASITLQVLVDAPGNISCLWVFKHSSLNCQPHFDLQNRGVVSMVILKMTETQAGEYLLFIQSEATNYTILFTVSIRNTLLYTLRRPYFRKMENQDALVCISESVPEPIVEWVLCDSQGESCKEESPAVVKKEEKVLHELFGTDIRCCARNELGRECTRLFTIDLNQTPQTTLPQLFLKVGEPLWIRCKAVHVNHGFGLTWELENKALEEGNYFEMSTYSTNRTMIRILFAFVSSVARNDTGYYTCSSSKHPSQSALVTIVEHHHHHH
The description is as above.
Source text: as §1, §2

The target of experiment [4] is T3, Flt3D1-D3, recombinant human Flt3 …. Briefly: ITC at 37 C, Flt3 ectodomain titrated with FL; Flt3D1-D3 ectodomain; about 50% active receptor fraction. How it is done:
as §2
(§3) To quantify the thermodynamics, stoichiometry and affinity of extracellular complexes and to dissect the contribution of individual ectodomain modules to complex formation, isothermal titration calorimetry (ITC) was employed. This led to a number of consensus observations (FIG. 1D-F). […] Upon adjusting the Flt3 concentration to the approximate active receptor fraction (˜50%) estimated via the chromatographic elution profile of complex formation, a stoichiometry and thermodynamic signature consistent with that of the other two complexes is detected (FIG. 1F).

Experiment [5] addresses T1, Flt3D1-D5, recombinant human Flt3 …. Briefly: ITC at 37 C, one binding site model. How it is done: as §2, §3
For experiment [6], the target named is T2, Flt3D1-D4, recombinant human Flt3 …. Briefly: ITC at 37 C, one binding site model. As to the method: as §2, §3
Experiment [7] has the same target. Briefly: ITC at 37 C, Flt3 ectodomain titrated with FL; Flt3D1-D4 ectodomain. As to the method:
as §2, §3

The target in experiment [8] is T1, Flt3D1-D5, recombinant human Flt3 …. Briefly: ITC at 37 C, Flt3 ectodomain titrated with FL; Flt3D1-D5 ectodomain. How it is done:
as §2, §3

The target of experiment [9] is T4, Flt3D1, recombinant human Flt3 ectodomain variant (residues 27-161) with C-terminal hexahistidine tag (human, UniProt P36888 27-161, N-linked glycosylation (glycosylated protein from HEK293 cells)).
T4 construct: also called Flt3D1(27-161)
T4 sequence: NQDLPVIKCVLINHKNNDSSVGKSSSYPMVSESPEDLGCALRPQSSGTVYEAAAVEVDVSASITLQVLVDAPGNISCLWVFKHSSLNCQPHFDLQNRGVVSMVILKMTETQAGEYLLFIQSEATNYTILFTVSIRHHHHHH
Briefly: size-exclusion chromatography with FL.

The target of experiment [10] is T5, Flt3D1-D2, recombinant human Flt3 ectodomain variant (residues 27-244) with C-terminal hexahistidine tag (human, UniProt P36888 27-244, N-linked glycosylation (glycosylated protein from HEK293 cells)).
T5 construct: also called Flt3D12 (27-244)
T5 sequence: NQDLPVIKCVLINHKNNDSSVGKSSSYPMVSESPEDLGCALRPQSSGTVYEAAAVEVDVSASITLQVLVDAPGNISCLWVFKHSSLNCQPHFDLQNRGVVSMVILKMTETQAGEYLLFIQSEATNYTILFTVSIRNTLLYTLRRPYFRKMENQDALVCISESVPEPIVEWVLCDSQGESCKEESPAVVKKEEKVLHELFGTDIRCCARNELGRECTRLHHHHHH
Briefly: size-exclusion chromatography with FL.

The values that follow come from patent US20130288373A1 (published 2013).

B1: recombinant human FL (fms-like tyrosine kinase receptor-3 ligand) produced in E. coli (ligand)
chain: TQDCSFQHSPISSDFAVKIRELSDYLLQDYPVTVASNLQDEELCGGLWRLVLAQRWMERLKTVAGSKMQGLLERVNTEIHFVTKCAFQPPPSCLRFVQTNISRLLQETSEQLVALKPWITRQNFSRCLELQCQP
notes: Dimeric cytokine; also called Flt3 ligand; cognate ligand
In the case of B1, the N was determined as 0.42 in experiment [1], 0.45 in experiment [2] and 0.121 in [3]. Also, the ΔH in [1] is -51.7 kcal/mol; in experiment [2], -55.9 kcal/mol; in [3], -24.9 kcal/mol. In addition, the ΔS is -130 cal mol-1 K-1 in experiment [1], -146 cal mol-1 K-1 in experiment [2] and -47.5 cal mol-1 K-1 in [3]. Moreover, the equilibrium dissociation constant (Kd) was determined as 74.6 nM in [3], 70 nM in experiment [4], 40 nM in experiment [7] and 8.7 nM in experiment [8]. Besides, the “stoichiometry of binding (N)” value in experiment [5] and in [6] was 0.5 each time. Further, the binding result in experiment [9] and in experiment [10] was “no binding” in each case.
